The numbers were not newly measured in paper PMC3616122, which cites them from elsewhere.

By Kd is commonly meant the free concentration of one partner at which half of the binding sites on the other are occupied at equilibrium, for simple one-to-one binding.

The data set addresses Cul3 NTD (Homo sapiens) (UniProt Q13618). Kind of data set: ITC. On the technique in general: Isothermal titration calorimetry measures the heat released or taken up as one component is titrated into another.

Sequence of Cul3 NTD (Homo sapiens) (Q13618 20-381): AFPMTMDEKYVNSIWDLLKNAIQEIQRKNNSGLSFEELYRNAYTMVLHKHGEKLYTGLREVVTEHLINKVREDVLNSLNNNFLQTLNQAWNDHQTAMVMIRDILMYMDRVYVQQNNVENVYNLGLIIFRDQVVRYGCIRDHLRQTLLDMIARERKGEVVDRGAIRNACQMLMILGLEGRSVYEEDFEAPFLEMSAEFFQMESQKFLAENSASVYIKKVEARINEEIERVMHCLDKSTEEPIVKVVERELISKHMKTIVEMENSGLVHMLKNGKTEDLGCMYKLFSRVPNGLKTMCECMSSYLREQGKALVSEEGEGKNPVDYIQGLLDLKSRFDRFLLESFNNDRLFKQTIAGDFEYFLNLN
Sequence of SPOP BTB (O43791 170-300): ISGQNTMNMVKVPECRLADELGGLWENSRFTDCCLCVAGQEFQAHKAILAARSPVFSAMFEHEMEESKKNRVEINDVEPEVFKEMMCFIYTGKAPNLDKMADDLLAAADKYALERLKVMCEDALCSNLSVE
Sequence of SPOP BTB-BACK (O43791 177-359): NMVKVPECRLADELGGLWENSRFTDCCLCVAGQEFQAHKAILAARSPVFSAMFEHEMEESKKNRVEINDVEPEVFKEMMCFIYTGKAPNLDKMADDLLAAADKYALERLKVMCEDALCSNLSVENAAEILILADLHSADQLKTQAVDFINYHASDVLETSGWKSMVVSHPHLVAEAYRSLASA

In the case of SPOP BTB (from UniProt O43791), the Kd was 1000 µM.

Consider SPOP BTB-BACK (from UniProt O43791), for which the equilibrium dissociation constant (Kd) is 0.013 µM.
